The target of one data set is SaFosB (Staphylococcus aureus, UniProt Q5HDM4). Nature of the data set: HPLC-based enzyme inhibition kinetics, purified enzyme. It is filed as biochemical.
A further data set concerns N[C@@H](CS)C(=O)O. Description: HPLC-based steady-state kinetics. The note with it: […] Mn2+; fosfomycin ([…]). It is filed as biochemical, Staphylococcus aureus.

SaFosB, sequence (Q5HDM4 whole entry): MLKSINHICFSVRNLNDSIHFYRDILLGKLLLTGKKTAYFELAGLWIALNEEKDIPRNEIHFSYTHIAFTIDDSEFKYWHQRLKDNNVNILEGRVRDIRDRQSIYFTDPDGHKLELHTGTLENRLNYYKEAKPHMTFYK

Compound `N[C@@H](CO)C(=O)N[C@H]1[C@@H](O[C@@H](CC(=O)O)C(=O)O)O[C@H](CO)[C@@H](O)[C@@H]1O` [BOH] yielded a Ki at SaFosB of 3.9 mM.
Regarding “SaFosB (Staphylococcus aureus subsp. aureus COL)”, in the data set on N[C@@H](CS)C(=O)O, the Michaelis constant (Km) came to 13 mM, the kcat was 2.3 ± 0.2 s⁻¹ and the kcat/Km was 175 ± 44 M⁻¹ s⁻¹.

The Ki is a measure of affinity in units of concentration, obtained from inhibition or displacement. By Km is commonly meant the concentration of substrate that gives half-maximal velocity. As a reminder, the kcat is the maximal rate divided by the concentration of active sites. As a reminder, the kcat/Km is the turnover number divided by the Michaelis constant.

Values taken from article PMC3960972 (The Biochemical journal, 2013).
